Here are results for one molecule from patent US6300131, “Telomerase-associated proteins” (Johns Hopkins University, dated 2001).

This assay deals with ribosomal associated protein L22 (human, UniProt P35268). The experiment in a line: co-immunoprecipitation from 293 cell lysate, Western blot. For orientation: A western blot detects proteins with antibodies after separation by electrophoresis.

Protocol: Multi-tissue northern blots (Clontech) were hybridized with a 0.7 kb BamHI-EcoRI hStau cDNA probe according to the manufacturer's procedures. In particular, blots were hybridized at 68° C. in ExpressHyb solution (Clontech) for 1 hour with shaking. Blots were washed several times in 2×SSC, 0.05% SDS at room temperature, with a final wash in 0.1×SSC and 0.1% SDS at 60° C. for about 40 minutes. The blots then were re-probed with an actin probe without stripping the hStau signal. Signal intensity was quantified on a BAS 1500 PhosphorImager system (Fuji Medical System, Inc, Stamford, Conn.).

B1: human staufen (hStau) polypeptide (other)
chain: MKLGKKPMYKPVDPYSRMRSTYNYNMRGGAYPPRYFYPFPVPPLLYQVELSVGGQQFNGKGKTRQAAKHDAAAKALRILQNEPLPERLEVNGRESEEENLNKSEISQVFEIALKRNLPVNFEVARESGPPHMKNFVTKVSVGEFVGEGEGKSKKISKKNAAIAVLEELKKLPPLPAVERVKPRIKKKTKPIVKPQTSPEYGQGINPISRLAQIQQAKKEKEPEYTLLTERGLPRRREFVMQVKVGNHTAEGTGTNKKVAKRNAAENMLEILGFKVPQAQPTKPALKSEEKTPIKKPGDGRKVTFFEPGSGDENGTSNKEDEFRMPYLSHQQLPAGILPMVPEVAQAVGVSQGHHTKDFTRAAPNPAKATVTAMIARELLYGGTSPTAETILKNNISSGHVPHGPLTRPSEQLDYLSRVQGFQVEYKDFPKNNKNEFVSLINCSSQPPLISHGIGKDVESCHDMAALNILKLLSELDQQSTEMPRTGNGPMSVCGRC
For B1, the binding result is given as “no binding”.
